Data from the supplement of paper PMC7877785.
± gives the uncertainty stated by the source.

Experiment: self-splicing fitness, log relative to wild type (ln ratio); higher = more splicing; Tetrahymena group I intron in knt gene, E. coli kanamycin selection, DiMSum; sequences stand for … in CUCUCU…GGAGGGAAAAGUUAUCAGGCAUGCACCUGGUAGCUAGUCUUUAAACCAAUAGAUUGCAUCGGUUUAAAAGGCAAGACCGUCAAAUUGCGGGAAAGGGGUCAACAGCCGUUCAGUACCAAGUCUCAGGGGAAACUUUGAGAUGGCCUUGCAAAGGGUAUGGUAAUAAGCUGACGGACAUGGUCCUAACCACGCAGCCAAGUCCUAAGUCAACAGAUCUUCUGUUGAUAUGGAUGCAGUUCACAGACUAAAUGUCGGUCGGGGAAGAUGUAUUCUUCUCAUAAGAUAUAGUCGGACCUCUCCUUAAUGGGAGCUAGCGGAUGAAGUGAUGCAACACUGGAGCCGCUGGGAACUAAUUUGUAUGCGAAAGUAUAUUGAUUAGUUUUGGAGUACUCGUGGUCG
Summary of the method: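 Six replicate transformations of E. coli BL21(DE3) with a pET-22b(+) library were grown overnight at 37°C or 30°C. The library randomised all eight P1ex-region intron nucleotides, the intron lying in the knt kanamycin-resistance gene, and plates were LB agar with or without 25 μg/mL kanamycin plus 100 μg/mL carbenicillin, 50 μM IPTG and 0.2% rhamnose. Pooled colonies were amplicon-sequenced on an Illumina HiSeq 2500, and fitness is the DiMSum error-weighted combination of wild-type-normalised replicate fold changes, kanamycin versus none.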

Sequence	self-splicing fitness (ln) (30 °C)	self-splicing fitness (ln) (37 °C)
UGUUAGCAAUAUUACGUGGU	-4.24 ± 0.19	-2.76 ± 0.14
UGUUAGCAAUAUUACGUGUG	-0.767 ± 0.12	-0.724 ± 0.13
UGUUAGCAAUAUUACGUUAG	-0.971 ± 0.12	-1.26 ± 0.12
UGUUAGCAAUAUUACGUUGA	-1.59 ± 0.21	-0.731 ± 0.19
UGUUAGCAAUAUUACGUUUU	-3.9 ± 0.33	-2.19 ± 0.24
UUAAAGCAAUAUUACGACAU	-0.271 ± 0.012	0.189 ± 0.032
UUAAAGCAAUAUUACGACCA	-0.0875 ± 0.22	0.312 ± 0.25
UUAAAGCAAUAUUACGACCC	-0.686 ± 0.28	-0.355 ± 0.29
UUAAAGCAAUAUUACGAGCU	-0.888 ± 0.073	-0.532 ± 0.1
UUAAAGCAAUAUUACGAUUA	0.6 ± 0.089	0.448 ± 0.097
UUAAAGCAAUAUUACGAUUG	-2.03 ± 0.11	-0.734 ± 0.11
UUAAAGCAAUAUUACGCACU	-0.0158 ± 0.068	0.681 ± 0.095
UUAAAGCAAUAUUACGCCUC	-2.29 ± 0.19	-1.43 ± 0.24
UUAAAGCAAUAUUACGGAAA	-0.926 ± 0.092	-1.29 ± 0.12
UUAAAGCAAUAUUACGGACC	-2.27 ± 0.18	0.778 ± 0.16
UUAAAGCAAUAUUACGGAGU	-3.35 ± 0.21	-1.68 ± 0.19
UUAAAGCAAUAUUACGGCGA	0.464 ± 0.17	0.659 ± 0.21
UUAAAGCAAUAUUACGGCUG	0.262 ± 0.083	0.525 ± 0.12
UUAAAGCAAUAUUACGGGGG	-1.83 ± 0.13	-2.16 ± 0.2

Sequence	self-splicing fitness (ln) (30 °C)	self-splicing fitness (ln) (37 °C)
UUAAAGCAAUAUUACGUAUA	-1.26 ± 0.12	-0.271 ± 0.14
UUAAAGCAAUAUUACGUCAG	-0.815 ± 0.065	0.0256 ± 0.093
UUAAAGCAAUAUUACGUCCC	-1.51 ± 0.11	-0.906 ± 0.14
UUAAAGCAAUAUUACGUGUC	-1.09 ± 0.14	-1.42 ± 0.16
UUAAAGCAAUAUUACGUUAC	-3.66 ± 0.19	-0.9 ± 0.2
UUACAGCAAUAUUACGAACU	-2.26 ± 0.15	-0.279 ± 0.13
UUACAGCAAUAUUACGAAUC	-3.27 ± 0.27	-2.13 ± 0.3
UUACAGCAAUAUUACGACGA	-0.196 ± 0.077	0.136 ± 0.12
UUACAGCAAUAUUACGAGCA	-1.65 ± 0.14	-0.698 ± 0.11
UUACAGCAAUAUUACGAGGA	-2.24 ± 0.19	-0.838 ± 0.15
UUACAGCAAUAUUACGCACU	-0.534 ± 0.12	-0.572 ± 0.14
UUACAGCAAUAUUACGCAUU	-2.73 ± 0.17	-1.52 ± 0.14
UUACAGCAAUAUUACGCCUA	0.181 ± 0.11	0.542 ± 0.12
UUACAGCAAUAUUACGCUUG	-1.23 ± 0.12	-0.126 ± 0.13
UUACAGCAAUAUUACGGAAA	-1.42 ± 0.14	-0.561 ± 0.14
UUACAGCAAUAUUACGGACC	-3.25 ± 0.4	-1.41 ± 0.32
UUACAGCAAUAUUACGGCAU	-2.01 ± 0.074	-0.552 ± 0.087
UUACAGCAAUAUUACGGCUU	-1.13 ± 0.082	-1.35 ± 0.1
